Measurements as given in PMC4775355 (Cancer research, 2016).

Molecular target: the molecule itself
Assay: cross-linking

B1: Flag-PKM2 Y148F mutant (PKM2^Y148F) (enzyme)
chain: not shown
stoichiometry N: 4
